From US20050249735A1

Legend:
[1] = target: human lymphotoxin (TNFβ) (human) (UniProt P01374); test: cell-based or functional assay
[2] = target: human tumor necrosis factor-alpha (TNFα) (human) (UniProt P01375); test: cell-based or functional assay
Sequence of human tumor necrosis factor-alpha (TNFα) (human) (P01375 77-233): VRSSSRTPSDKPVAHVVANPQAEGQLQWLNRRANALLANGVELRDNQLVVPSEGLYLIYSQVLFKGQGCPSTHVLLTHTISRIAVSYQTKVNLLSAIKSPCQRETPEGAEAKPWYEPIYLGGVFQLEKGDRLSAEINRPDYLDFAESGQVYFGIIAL

Sequence of human lymphotoxin (TNFβ) (human) (P01374 35-205 limits assumed): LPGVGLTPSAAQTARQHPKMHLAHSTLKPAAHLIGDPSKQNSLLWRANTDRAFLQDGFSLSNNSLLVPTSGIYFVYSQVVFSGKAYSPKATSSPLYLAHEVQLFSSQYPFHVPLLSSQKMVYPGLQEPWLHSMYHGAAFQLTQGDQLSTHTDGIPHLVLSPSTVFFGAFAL

## p55-sf2 (p55 TNF receptor / IgG1 heavy chain single fusion with truncated light chain JCK) (from UniProt P01857 1-330) (Fc fusion)
[1]
  amount needed for the same degree of inhibition of TNFβ cytotoxicity, against p75P-sf2: 3 fold

## p75-sf2 (complete extracellular domain of p75 fused to the heavy chain) (from UniProt P20333 23-257; P01857 1-330) (Fc fusion)
[1]
  amount needed for the same degree of inhibition of TNFβ cytotoxicity, against p75P-sf2: 3 fold

## p75P-sf2 (p75 heavy chain fusion lacking the C-terminal 53 amino acids of the p75 extracellular domain) (from UniProt P20333 23-204; P01857 1-330) (Fc fusion)
[1]
  concentration to half-inhibit human TNFβ at 2 pM, WEHI 164 cytotoxicity: 31 pM

B1: chimeric mouse/human IgG1 anti-platelet mAb (7E3) (antibody, INN chains, looked up, V domains shown)
VH: EVQLQQSGTVLARPGASVKMSCEASGYTFTNYWMHWVKQRPGQGLEWIGAIYPGNSDTSYIQKFKGKAKLTAVTSTTSVYMELSSLTNEDSAVYYCTLYDGYYVFAYWGQGTLVTVSA
VL: EIVLTQSPVTLSVTPGDSVSLSCRASRDISNNLHWFQQTSHESPRLLIKYASQSMSGIPSRFSGSGSGTDFTLSINSVETEDFGMYFCQQTNSWPYTFGGGTKLEIK
modifications: full IgG1
[2]
  IL-6 in supernatant of FS-4 fibroblasts, rhTNF 0.3 ng/ml, 4 µg/ml antibody: 1.6 ng/mL
  IL-6 in supernatant of FS-4 fibroblasts, rhTNF 1.5 ng/ml, 4 µg/ml antibody: 1.96 ng/mL
  IL-6 in supernatant of FS-4 fibroblasts, rhTNF 7.5 ng/ml, 4 µg/ml antibody: 2.16 ng/mL
